# Laboratory results: US20250154283A1 (published 2025)
# Positions count from the first letter of the chain named.
# T1: biotinylated cynomolgus monkey VWF cysteine knot (CK) domain construct (cynomolgus monkey, biotinylated in vitro (BirA) on the biotinylation tag; one N-glycan)
# T1 construct: Expressed in HEK293 EBNA cells; disulfide-linked homodimer; also called cyno VWF CK; cyno VWF CK domain; not shown: in vitro biotinylation tag, HRV-3C site and 3 VWF residues before the CK domain
# T1 chain: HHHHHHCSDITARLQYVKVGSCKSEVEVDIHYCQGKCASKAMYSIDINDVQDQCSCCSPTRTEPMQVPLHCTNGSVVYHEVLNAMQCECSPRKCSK
# B1: 4142_Lib1_scFv (scFv)
# scFv: QVQLVQSGAEVKKPGASVKVSCKVSGYPFTSSGIHWVRQAPGKGLEWMGGVIPLFGTANYAQKFQGRVTMTEDTSTDTAYMELSSLKSEDTAVYYCARIRVSSGWYRDYGMDVWGQGTTVTVSSSGGSTITSYNVYYTKLSSSGTDIQMTQSPSSVSASVGDRVTITCRASQDITNDLAWYQQKPGKAPKLLIYDASRLQSGVPSRFSGSGSGTDFTLTISSLQPEDFANYYCQQTFTTPLTFGGGTKVEIK
# notes: VH-linker-VL; not shown: C-terminal 3xFLAG and SV5 tags
# B2: 4029_Lib1_scFv (scFv)
# scFv: B1 scFv with D173S, T175G, N176D, D177F, R198H, S201T, F237S, T239I, L241P
# notes: as for B1
# B3: Lib4_P2_A3_scFv (scFv)
# scFv: QVQLQESGPGLVKPSQTLSLTCTVSGVSLSTSDYSWSWIRQPPGKGLEWIGYISPPGRSDYNPSLKSRVTMSVDTSKNQFSLKVNSVTAADTAVYYCARHSSSGWYSTYDFDSWGQGTMVTVSSSGGSTITSYNVYYTKLSSSGTEIVMTQSPATLSLSPGERATLSCRASQNIHSNLAWYQQKPGQAPRLLIYGATTRATGIPARFSGSGSGTDFTLTISSLEPEDFAVYYCQQSYTTPLTFGGGTKVEIK
# notes: as for B1
# B4: Lib4_P2_A1_scFv (scFv)
# scFv: QVQLQESGPGLVKPSQTLSLTCTVSGASFGDNYWSWIRQPPGKGLEWIGYIDTSGSSDYNPSLKSRVTMSVDTSKNQFSLKVNSVTAADTAVYYCARVSWGYYAMDVWGQGTTVTVSSSGGSTITSYNVYYTKLSSSGTEIVMTQSPATLSLSPGERATLSCRASQGISGRLAWYQQKPGQAPRLLIYDVSTRATGIPARFSGSGSGTDFTLTISSLEPEDFAVYYCQQYDTSAPLTFGGGTKVEIK
# notes: as for B1
# B5: 2738_Lib1_scFv (scFv)
# scFv: QVQLVQSGAEVKKPGASVKVSCKVSGYTLTDLPIHWVRQAPGKGLEWMGGINPFLGTTIYAQKFQGRVTMTEDTSTDTAYMELSSLKSEDTAVYYCARGVDMLATARDYYYMAIWGKGTTVTVSSSGGSTITSYNVYYTKLSSSGTDIQMTQSPSSVSASVGDRVTITCRASQSIGNDLAWYQQKPGKAPKLLIYGASMRATGVPSRFSGSGSGTDFTLTISSLQPEDFANYYCQQYASDPLTFGGGTKVEIK
# notes: as for B1
# B6: Lib4_P2_B4_scFv (scFv)
# scFv: QVQLQESGPGLVKPSQTLSLTCTVSGASLGDQYWSWIRQPPGKGLEWIGYIHPSGDFDYNPSLKSRVTMSVDTSKNQFSLKVNSVTAADTAVYYCARHYSSSWYGTWYFDLWGRGTLVTVSSSGGSTITSYNVYYTKLSSSGTEIVMTQSPATLSLSPGERATLSCRASQNIGTNLAWYQQKPGQAPRLLIYDASVRAAGIPARFSGSGSGTDFTLTISSLEPEDFAVYYCQQSLTTPLTFGGGTKVEIK
# notes: as for B1
# B7: Lib1_P1_E9_scFv (scFv)
# scFv: QVQLVQSGAEVKKPGASVKVSCKVSGYTFTSHIIHWVRQAPGKGLEWMGGMNPYSNKAIYAQKFQGRVTMTEDTSTDTAYMELSSLKSEDTAVYYCARDASDYGDYGYYYYYMDVWGKGTTVTVSSSGGSTITSYNVYYTKLSSSGTDIQMTQSPSSVSASVGDRVTITCRASQYIGNDLAWYQQKPGKAPKLLIYEASQRPSGVPSRFSGSGSGTDFTLTISSLQPEDFANYYCQQQYNYPLTFGGGTKVEIK
# notes: as for B1
# B8: 487_Lib1_scFv (scFv)
# scFv: QVQLVQSGAEVKKPGASVKVSCKVSGYTFTSHIIHWVRQAPGKGLEWMGGMNPYSNKAIYAQKFQGRVTMTEDTSTDTAYMELSSLKSEDTAVYYCARDASDYGDYGYYYYYMDVWGKGTTVTVSSSGGSTITSYNVYYTKLSSSGTDIQMTQSPSSVSASVGDRVTITCRASQSIGDFLAWYQQKPGKAPKLLIYDASHLQTGVPSRFSGSGSGTDFTLTISSLQPEDFANYYCQQTSTIPPTFGGGTKVEIK
# notes: as for B1
# B9: Lib8_P4_D4_scFv (scFv)
# scFv: QVQLVQSGAEVKKPGASVKVSCKVSGDTLSNYAIHWVRQAPGKGLEWMGGINPNAGTTIYAQKFQGRVTMTEDTSTDTAYMELSSLKSEDTAVYYCARDSSSWCPVGYYYYYMDVWGKGTTVTVSSSGGSTITSYNVYYTKLSSSGTDIQMTQSPSSVSASVGDRVTITCRASQSIGDFLAWYQQKPGKAPKLLIYDASHLQTGVPSRFSGSGSGTDFTLTISSLQPEDFANYYCQQTSTIPPTFGGGTKVEIK
# notes: as for B1
# B10: Lib6_P3_A1_scFv (scFv)
# scFv: B9 scFv
# notes: as for B1
# B11: Lib6_P3_E10_scFv (scFv)
# scFv: B9 scFv
# notes: as for B1
# B12: Lib8_P4_C11_scFv (scFv)
# scFv: B9 scFv
# notes: as for B1
# B13: Lib1_P1_A1_scFv (scFv)
# scFv: B9 scFv with C104S, P105Q, V106F
# notes: as for B1
# B14: 189_Lib4_scFv (scFv)
# scFv: QVQLQESGPGLVKPSQTLSLTCTVSGVTFSSYGWSWIRQPPGKGLEWIGYVDTSGSTDYNPSLKSRVTMSVDTSKNQFSLKVNSVTAADTAVYYCARTTYYYDSSGFARGWFDPWGQGTLVTVSSSGGSTITSYNVYYTKLSSSGTEIVMTQSPATLSLSPGERATLSCRASQSVPSSHLAWYQQKPGQAPRLLIYDATNRAAGIPARFSGSGSGTDFTLTISSLEPEDFAVYYCQQYDNWPSPSFGGGTKVEIK
# notes: as for B1
# B15: 3964_Lib4_scFv (scFv)
# scFv: QVQLQESGPGLVKPSQTLSLTCTVSGASISTHSWSWIRQPPGKGLEWIGYINPSGDIDYNPSLKSRVTMSVDTSKNQFSLKVNSVTAADTAVYYCARGRTGFDSSGFVVGAFDIWGQGTMVTVSSSGGSTITSYNVYYTKLSSSGTEIVMTQSPATLSLSPGERATLSCRASQNVNDNLAWYQQKPGQAPRLLIYDASTRPTGIPARFSGSGSGTDFTLTISSLEPEDFAVYYCQQYLTIPRTFGGGTKVEIK
# notes: as for B1
# B16: 3552_Lib8_scFv (scFv)
# scFv: EVQLVESGGGLVQPGRSLRLSCAASEFTFGDYDMHWVRQAPGKGLEWVSAISSSGSNRDYADSVEGRFTISRDNAKNSLYLQMNSLRAEDTAVYYCARDAWFGDAFDIWGQGTMVTVSSSGGSTITSYNVYYTKLSSSGTDIQMTQSPSSLSASVGDRVTITCRASESVSSWLAWYQQKPGKAPKLLIYGASTLEGGVPSRFSGSGSGTDFTLTISSLQPEDVATYYCQQSYSFPDFGGGTKVEIK
# notes: as for B1
# B17: 4166_Lib4_scFv (scFv)
# scFv: QVQLQESGPGLVKPSQTLSLTCTVSGESFSGHFWSWIRQPPGKGLEWIGYISQSGRTDYNPSLKSRVTMSVDTSKNQFSLKVNSVTAADTAVYYCARTLPRIQLWSPRGAFDIWGQGTMVTVSSSGGSTITSYNVYYTKLSSSGTEIVMTQSPATLSLSPGERATLSCRASQSLGRSLAWYQQKPGQAPRLLIYDASHRATGIPARFSGSGSGTDFTLTISSLEPEDFAVYYCQQYVSYPLTFGGGTKVEIK
# notes: as for B1
# B18: Lib6_P3_B9_scFv (scFv)
# scFv: EVQLVQSGAEVKKPGASVKVSCKASGDTFSSHVISWVRQAPGQGLEWMGGINPRTGTTIYAQKLQGRGTMTTDPSTSTAYMELRSLRSDDTAVYYCARTRPWAGLDVWGQGTTVTVSSSGGSTITSYNVYYTKLSSSGTESALTQPASVSGSPGQSITISCTGTNIEYKGVSWYQQHPGKAPKLMIYGVDKRPSGVSNRFSGSKSGNTASLTISGLQAEDEADYYCQAWGTSTAIFGGGTKLTVL
# notes: as for B1
# Molecular target: T2, biotinylated human VWF cysteine knot (CK) domain construct (human, UniProt P04275 2724-2813, biotinylated in vitro (BirA) on the biotinylation tag; one N-glycan)
# T2 construct: Expressed in HEK293 EBNA cells; disulfide-linked homodimer; also called human VWF CK; human VWF CK domain; not shown: in vitro biotinylation tag, HRV-3C site and 3 VWF residues before the CK domain
# Test: SPR, scFv captured via anti-SV5, CK domain injected, pH 5.5, apparent Kd;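 further: scFvs from crude yeast supernatants captured on chip-bound anti-SV5 antibody, Kd computed as koff divided by kon, dimeric CK construct likely makes affinity appear higher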
row,Kd [nM],Binder
1,0.634,B1
2,2.58,B2
3,1.93,B3
4,0.235,B4
5,0.519,B5
6,0.225,B6
7,0.639,B7
8,0.829,B8
9,0.397,B9
10,1.32,B10
11,0.659,B11
12,0.617,B12
13,0.202,B13
14,0.269,B14
15,0.737,B15
16,0.412,B16
17,0.567,B17
18,1.22,B18

# Molecular target: T2, biotinylated human VWF cysteine knot …
# Test: SPR, scFv captured via anti-SV5, CK domain injected, pH 7.4, apparent Kd;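 further: scFvs from crude yeast supernatants printed on an amine-coupled anti-SV5 lawn, Kd computed as koff over kon, likely overestimating affinity because the CK construct is dimeric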
# Source text: (§1) Briefly, a sensor chip was activated and coupled with an anti-SV5 mouse monoclonal antibody using amine coupling. The soluble scFvs in crude yeast supernatants were printed on the anti-SV5 lawn. […] From the measured association (kₒₙ) and dissociation (koff) rate constants, an apparent equilibrium dissociation constant (Kd=koff/kₒₙ) was estimated. Due to the dimeric state of the CK construct and consequent possibility for simultaneous binding of captured scFv to both monomers in the CK dimer, the SPR setup was expected to overestimate the binding affinity.
row,Kd [nM],Binder
1,0.839,B1
2,4.27,B2
3,1.48,B3
4,1.2,B4
5,1.18,B5
6,1.07,B6
7,0.915,B7
8,1.5,B8
9,0.917,B9
10,1.41,B10
11,1.72,B11
12,1.08,B12
13,1.38,B13
14,1.37,B14
15,1.13,B15
16,1.16,B16
17,0.958,B17
18,1.41,B18

# Molecular target: T1, biotinylated cynomolgus monkey VWF …
# Test: as above
# Source text: as §1
row,Kd [nM],Binder
1,0.999,B1
2,4.67,B2
3,0.387,B3
4,0.031,B4
5,0.922,B5
6,0.096,B6
7,0.536,B7
8,1.51,B8
9,0.206,B9
10,0.017,B10
11,1.96,B11
12,0.155,B12
13,1.08,B13
14,0.441,B14
15,0.689,B15
16,0.018,B16
17,0.38,B17
18,1.03,B18
